Measured values taken from PMC11472053, “Structural basis of DNA recognition by BEN domain proteins reveals a role for oligomerization in unmethylated DNA selection by BANP” (Nucleic Acids Research, 2024).

What was measured:
[1] = molecular target: T1, BANP BEN WT (human) (UniProt Q8N9N5); test: ITC; details: 5-methyl-C at positions 5 and 7 of each strand (fully methylated); ITC: 20 mM Tris pH 7.5, 200 mM NaCl, 2 mM beta-mercaptoethanol, 20 C; EMSA: 20 mM Tris pH 7.0, 200 mM NaCl, 2 mM DTT, 4 C, 1.2% agarose in TAE
T1 sequence: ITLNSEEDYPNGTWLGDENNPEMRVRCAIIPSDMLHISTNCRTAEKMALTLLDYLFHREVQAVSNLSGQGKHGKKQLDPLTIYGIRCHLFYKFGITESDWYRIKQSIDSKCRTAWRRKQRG

[2] = molecular target: the molecule itself; test: cross-linking; purified full-length BANP in 20 mM HEPES pH 7.5, 200 mM NaCl, 2 mM DTT; 0.06% glutaraldehyde, on ice 10 min, quenched with Tris; then Superdex 200 10/300 GL and SDS-PAGE of the fractions
[3] = molecular target: T2, BANP CC-BEN (ΔDBD) (human, UniProt Q8N9N5 1-360); test: ITC; ITC: 20 mM Tris pH 7.5, 200 mM NaCl, 2 mM beta-mercaptoethanol, 20 C; EMSA: 20 mM Tris pH 7.0, 200 mM NaCl, 2 mM DTT, 4 C, 1.2% agarose in TAE; details: protein: recombinant; tags: His-SUMO or His-MBP, cleaved; blunt, self-complementary
T2 sequence: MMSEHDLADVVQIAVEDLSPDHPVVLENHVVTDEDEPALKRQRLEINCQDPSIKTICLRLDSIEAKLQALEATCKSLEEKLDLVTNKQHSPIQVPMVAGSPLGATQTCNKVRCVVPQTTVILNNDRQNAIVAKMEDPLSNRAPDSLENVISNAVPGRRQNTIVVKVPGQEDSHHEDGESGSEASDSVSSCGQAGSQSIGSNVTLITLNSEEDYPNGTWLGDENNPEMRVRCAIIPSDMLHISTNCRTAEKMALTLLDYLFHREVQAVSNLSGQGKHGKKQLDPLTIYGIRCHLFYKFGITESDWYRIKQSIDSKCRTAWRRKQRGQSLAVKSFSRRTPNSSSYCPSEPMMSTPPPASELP

[4] = molecular target: T3, BANP ΔCC (human, UniProt Q8N9N5 90-519); test: as above; details: protein: recombinant; tags: His-SUMO or His-MBP, cleaved; blunt, self-complementary
T3 sequence: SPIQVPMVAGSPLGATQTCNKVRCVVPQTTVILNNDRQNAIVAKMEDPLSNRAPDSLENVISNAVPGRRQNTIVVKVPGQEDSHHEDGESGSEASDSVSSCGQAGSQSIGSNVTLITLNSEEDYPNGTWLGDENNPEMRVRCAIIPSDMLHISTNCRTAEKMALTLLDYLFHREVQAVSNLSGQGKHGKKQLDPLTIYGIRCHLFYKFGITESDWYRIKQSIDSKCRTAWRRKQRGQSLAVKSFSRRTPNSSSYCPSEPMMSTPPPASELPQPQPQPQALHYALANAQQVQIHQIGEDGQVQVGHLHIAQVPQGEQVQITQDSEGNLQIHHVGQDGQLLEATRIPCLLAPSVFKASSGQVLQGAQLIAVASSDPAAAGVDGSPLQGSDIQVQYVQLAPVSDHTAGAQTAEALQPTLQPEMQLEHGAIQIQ

[5] = molecular target: T4, BANP BEN-DBD (human, UniProt Q8N9N5 205-519); test: as above; details: protein: recombinant; tags: His-SUMO or His-MBP, cleaved; blunt, self-complementary
T4 sequence: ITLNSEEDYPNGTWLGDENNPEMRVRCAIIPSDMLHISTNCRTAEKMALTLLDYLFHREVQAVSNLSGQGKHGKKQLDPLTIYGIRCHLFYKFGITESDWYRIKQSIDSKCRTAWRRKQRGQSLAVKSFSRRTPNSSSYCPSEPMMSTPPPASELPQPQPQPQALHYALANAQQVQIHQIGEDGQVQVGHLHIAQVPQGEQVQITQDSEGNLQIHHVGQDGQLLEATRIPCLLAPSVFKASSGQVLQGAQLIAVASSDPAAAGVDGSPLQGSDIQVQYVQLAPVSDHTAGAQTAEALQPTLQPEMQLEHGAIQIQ

[6] = molecular target: T5, BANP full-length WT (human, UniProt Q8N9N5 1-519); test: as above; details: protein: recombinant; tags: His-SUMO or His-MBP, cleaved; chain copies: 4; blunt, self-complementary
T5 sequence: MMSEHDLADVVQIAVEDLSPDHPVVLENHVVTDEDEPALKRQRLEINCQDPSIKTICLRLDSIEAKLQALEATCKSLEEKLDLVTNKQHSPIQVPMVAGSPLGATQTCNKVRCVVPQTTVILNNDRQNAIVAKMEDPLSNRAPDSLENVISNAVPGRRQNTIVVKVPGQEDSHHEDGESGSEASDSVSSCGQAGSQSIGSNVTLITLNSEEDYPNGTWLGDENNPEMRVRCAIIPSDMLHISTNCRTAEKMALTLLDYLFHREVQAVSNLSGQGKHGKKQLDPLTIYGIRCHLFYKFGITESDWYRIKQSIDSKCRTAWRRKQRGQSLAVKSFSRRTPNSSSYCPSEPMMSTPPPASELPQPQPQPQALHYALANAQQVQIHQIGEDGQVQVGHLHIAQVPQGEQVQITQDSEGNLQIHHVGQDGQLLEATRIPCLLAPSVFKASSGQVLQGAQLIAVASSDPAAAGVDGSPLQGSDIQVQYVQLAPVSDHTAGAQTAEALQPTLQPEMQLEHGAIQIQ

[7] = molecular target: T6, BANP BEN WT (human, UniProt Q8N9N5 205-325); test: crystal structure; 2.6 A; PDB assignment from column order; ITC: 20 mM Tris pH 7.5, 200 mM NaCl, 2 mM beta-mercaptoethanol, 20 C; EMSA: 20 mM Tris pH 7.0, 200 mM NaCl, 2 mM DTT, 4 C, 1.2% agarose in TAE; details: protein: recombinant; tags: His-SUMO or His-MBP, cleaved; chain copies: 2; 12 bp, 5' overhang 1 nt (C) each strand
T6 sequence: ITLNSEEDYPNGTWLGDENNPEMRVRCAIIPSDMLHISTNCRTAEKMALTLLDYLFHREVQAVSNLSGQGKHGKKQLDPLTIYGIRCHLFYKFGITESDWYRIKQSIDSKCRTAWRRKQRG

[8] = molecular target: T7, NACC1 BEN WT (human, UniProt Q96RE7 341-477); test: crystal structure; 2.3 A; PDB assignment from column order; ITC: 20 mM Tris pH 7.5, 200 mM NaCl, 2 mM beta-mercaptoethanol, 20 C; EMSA: 20 mM Tris pH 7.0, 200 mM NaCl, 2 mM DTT, 4 C, 1.2% agarose in TAE; details: protein: recombinant; tags: His-SUMO or His-MBP, cleaved; 10 bp, 5' overhang 1 nt (T) each strand
T7 sequence: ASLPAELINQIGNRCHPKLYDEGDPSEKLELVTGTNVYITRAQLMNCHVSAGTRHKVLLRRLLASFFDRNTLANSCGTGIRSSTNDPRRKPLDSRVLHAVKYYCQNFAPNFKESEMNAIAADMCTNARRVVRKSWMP

[9] = molecular target: T6, BANP BEN WT; test: EMSA; ITC: 20 mM Tris pH 7.5, 200 mM NaCl, 2 mM beta-mercaptoethanol, 20 C; EMSA: 20 mM Tris pH 7.0, 200 mM NaCl, 2 mM DTT, 4 C, 1.2% agarose in TAE; details: protein: recombinant; tags: His-SUMO or His-MBP, cleaved; chain copies: 2; blunt
[10] = molecular target: T7, NACC1 BEN WT; test: as above; details: protein: recombinant; tags: His-SUMO or His-MBP, cleaved; blunt

ATCTCGCGAGAT (double strand) [12-mCGmCG]
Kd [1]: 5.7 µM

B1: full-length BANP (natural protein, human, UniProt Q8N9N5 1-519, looked up)
chain: MMSEHDLADVVQIAVEDLSPDHPVVLENHVVTDEDEPALKRQRLEINCQDPSIKTICLRLDSIEAKLQALEATCKSLEEKLDLVTNKQHSPIQVPMVAGSPLGATQTCNKVRCVVPQTTVILNNDRQNAIVAKMEDPLSNRAPDSLENVISNAVPGRRQNTIVVKVPGQEDSHHEDGESGSEASDSVSSCGQAGSQSIGSNVTLITLNSEEDYPNGTWLGDENNPEMRVRCAIIPSDMLHISTNCRTAEKMALTLLDYLFHREVQAVSNLSGQGKHGKKQLDPLTIYGIRCHLFYKFGITESDWYRIKQSIDSKCRTAWRRKQRGQSLAVKSFSRRTPNSSSYCPSEPMMSTPPPASELPQPQPQPQALHYALANAQQVQIHQIGEDGQVQVGHLHIAQVPQGEQVQITQDSEGNLQIHHVGQDGQLLEATRIPCLLAPSVFKASSGQVLQGAQLIAVASSDPAAAGVDGSPLQGSDIQVQYVQLAPVSDHTAGAQTAEALQPTLQPEMQLEHGAIQIQ
notes: BANP, human, full length; also called SMAR1; source: E. coli Rosetta (DE3), purified (nickel column, HiTrap Q, gel filtration)
stoichiometry N [2]: 4

B2: 12-mCGmCG (dsDNA)
DNA 1: ATCTCGCGAGAT
DNA 2: ATCTCGCGAGAT
modifications: 5-methyl-C at positions 5 and 7 of each strand (fully methylated)
binding result [3]: no binding
binding result [4]: no binding
binding result [5]: no binding
binding result [6]: no binding

B3: BANP crystal DNA (dsDNA)
DNA 1: CATCTCGCGAGAT
DNA 2: CATCTCGCGAGAT
binding result [7]: binds

B4: NACC1 crystal DNA (dsDNA)
DNA 1: TTTACATGTAA
DNA 2: TTTACATGTAA
binding result [8]: binds

B5: 12-AT (dsDNA)
DNA 1: TTTTATATATAA
DNA 2: TTATATATAAAA
binding result [9]: no binding
binding result [10]: no binding
